Laboratory results published in the supplement of paper PMC12636428.

System: Saccharomyces cerevisiae
Assay: transcriptional activation domain activity (GFP:mCherry ratio, weighted mean of sorted bins, harmonized to initial dataset scale) (arbitrary fluorescence ratio units); higher = stronger transcriptional activation
Conditions: beta-estradiol 1 µM; induction time 4 h
Procedure, shortened: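 Barcoded protein tiles fused to an estradiol-inducible synthetic transcription factor were integrated at the yeast URA3 locus, in diploids carrying a GFP reporter. Cultures were diluted 1:5 into SC with 1 uM beta-estradiol, held 4 hours at 30 °C, sorted into 8 bins by GFP:mCherry ratio, and barcodes sequenced. Tiles under 50 reads were discarded. Activation activity is the read-weighted mean of bin median fluorescence, averaged across barcodes, then linearly mapped onto the initial dataset scale.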

Sequence | transcriptional activation domain activity
MGLANGDALITECGGVTFGFGFFLIFVGFWIGLDQVDGVWFLTLVWLLALFFL | 53900
MGLGFFSFFLSVFSFFLFPFFFFGCEFIYLFLVFWWRVDFSPMAERHSVEAGP | 53000
MGLGVLYHLSLLFPFLFFFLSLLFFSLLSSSFFLLWLFPISCLGFIVLFWTGS | 22200
MGLGVLYHLSLLFPFLFFFLYLSSSFPSFLILFFFFFGYSPSAVWVFLFCFGQ | 58100
MGLGVLYHLSLLFPSFSFFYLSSSFPPFFFFFLLLWLFPISCLGFLVLFWTGS | 61300
MGLIIYLGHMGCLMPRDDPTLFTIIHTNGIHHVCIVFCSCAISVHPWQQLLCH | 29000
MGLIYLYFIFFINLLIWFSVVFCELYFFFFCLCLSNCIFEIYFYVLFFNIFLY | 51000
MGLKGLLRSTIYVSSLVWLGWVVNLGQFLLFPFYSVTLKLSYNVNACIISVLV | 68500
MGLLCFVFVLHSVFFIFNALSFLPWFVFLKIKFIFLCLSSFGRVFSSFIYMIF | 53000
MGLLGGRRAADYYLFLFFLFFFYLSLFSPRFSSFLHFPSYIELVGFFFFLLRL | 36700
MGLLVIMEVVFCVINLDALFFFLLSLLLLFLTFFSFFRIMMEFIVFLHVSFYF | 61400
MGLNLLVCIILVLHYFSTLLISFYFLLTVHTFRHIFAHSHSPVCMCLIFLTII | 50200
MGLPYFWFYKHTCFSVNYVSSLFVLFFFYFLVGVVGYVTMGLVIFFLFFFLFF | 70300
MGLRTTPDYQKVEFTVTDIGLILKTLWICADLITFLFPLQRLVFHALVLLFSF | 62300
MGLSDWPRVLSWHASISLVYLPFWVVVSLVWRYHIWTLSSVVLIIFIHIIFGL | 31700
MGLSSSCFFLLLLVLSLFYYFFLSFFFIGHVAYFMTCGGLERAFLYLLLLLLL | 49100
MGLTVFSILYIPLNIIPPFFCCCLYIYHCFSFFSSTFILFFFFFGTVFAQVIL | 53200

Sequence | transcriptional activation domain activity
MGLVYPCWLVFFGWFPSFLFLIFLSFIINFILVFSFLLFTFIPPLFSLLSVQF | 37900
MGLWARFFCFVIVCFQITFLYCLFSFSPSFLDLQKTQPLFFTFFFFCSFPSFP | 44200
MGLWARFFCFVIVCFQITFLYCLLSFSPSFLDLQKIQPLFFTFFFFLLLSLFP | 43200
MGLWARFICFVIPLFFHYFPLFSFSFLLNIFPHYIYFFPTFYKSGPLFLCFFM | 50500
MGLWARFICFVIVCFQIISLYCLFSCSLFFLYLQKTQPHFFLLSLFPSSFPPS | 62700
MGLWARFICFVIVCFQITFLYCLFSCSPSFLYFQKTQPLFFTFFFSFPSFLLL | 56800
MGLWARFICFVIVCFQITFLYCLLSFSPSFLDLQKTQPLFFTFFFFLLLSLFP | 60400
MGLWARFICFVIVCLQITSLYCLFSCSPSFLYFKKIQPLFFTFFFFLLSLFPS | 52400
MGLYIFIFSFSFFLFFFFFFFFFFFVLGLVFVSMRTERLLSSQYFFFFWFFSG | 27800
MGMAYGVCCMYFLEPWWVGAISLVRFLGVGVFTLCMYFPSIMIFYFLLFFIIF | 51000
MGMEHLAQPDQPNKKKRRRQALSCTECKRRKIKCDRKQPCSPCTRRGEQAKCQ | 29900
MGMEYIFCLSLSSWGYIFFSFHGFPLFLIFIFSFLARFFLLFFHLFFSFSFFA | 65400
MGNFLYGFCVIFPYNLVYIIICYFGGITQVVNAGFGYMLLLIVLWTHGQLCLS | 38600
MGNGSVLLFLLFLCYGKGLGFFIFTFFFLFYLCIIYFFFPLFYYYLPLLSAGW | 67100
MGNGVRCLLFGKDFSFIFLLYRFSMWFLISPFQLPCWVLVILSCSCSSLSIFG | 65700
MGNKQDGVSGLGFMLISFSCLLLEWLTCAVSSILLSSEFWELSLVCLTLFWFL | 28900
MGNMGTCSFFFFFCWSSFFLCYFCVFPCVLSFQVEGLEAIFLPFTFFPFWFSL | 57300
